The record followed here is patent EP3330286A1.

What all share (experiment): indirect ELISA, antigen coated, negative control
The target of assay [1] is MPB70 recombinant protein (Mycobacterium bovis) (UniProt P0A669).
For assay [2], the target named is MPB83 recombinant protein (Mycobacterium bovis) (UniProt P0CAX7).
For assay [3], the target named is bovine tuberculin purified protein derivative (PPDb).
Assay [4] has as its target mixture of MPB70 and MPB83 recombinant proteins.
Assay [5] concerns the target p10 protein (ESAT-6) (Mycobacterium bovis) (UniProt P0A565).
Assay [6] concerns the target p22 immunogenic composition.

UniProt P0CAX7, sequence (P0CAX7 25-220 limits assumed): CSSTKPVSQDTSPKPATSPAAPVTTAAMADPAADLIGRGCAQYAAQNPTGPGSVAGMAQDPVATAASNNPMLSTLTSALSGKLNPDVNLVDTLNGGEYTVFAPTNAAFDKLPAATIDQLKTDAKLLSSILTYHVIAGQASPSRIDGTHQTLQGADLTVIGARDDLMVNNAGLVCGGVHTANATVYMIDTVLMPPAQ
UniProt P0A669, sequence (P0A669 31-193 limits assumed): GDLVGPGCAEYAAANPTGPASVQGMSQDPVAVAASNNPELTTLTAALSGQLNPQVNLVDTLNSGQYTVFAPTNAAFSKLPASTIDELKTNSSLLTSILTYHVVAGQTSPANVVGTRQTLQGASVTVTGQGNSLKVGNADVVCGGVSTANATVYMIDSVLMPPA
UniProt P0A565, sequence (P0A565 2-95 limits assumed): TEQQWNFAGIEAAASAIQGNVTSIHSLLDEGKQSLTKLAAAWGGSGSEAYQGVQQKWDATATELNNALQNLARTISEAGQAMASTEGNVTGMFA

Consider Control -, for which the optical density in assay [1] stood at 0.08 OD; in assay [2], 0.07 OD; in assay [3] it was 0.06 OD; in assay [4], 0.07 OD; in assay [5] it was 0.06 OD; in assay [6] it was 0.07 OD.
